Entries after “also recorded” stand apart in the source; their conditions may differ.
Tests used:
[1] = tested on: androgenic alopecia model; assay: First experiment: testosterone-induced androgenic alopecia model, hair observed by dermatoscope and scanning electron microscopy; type: in vivo, C57BL/6 male mice
Protocol: Experimental animals: C57BL/6 male mice, 6-7 weeks old, weighing (20±2) g, were provided by Beijing Vital River Laboratory Animal Technology Co. Ltd., with the animal license number of SCXK (Beijing) 2021-0006. They were kept in a 12 h light/12 h dark environment, with free access to food and water. The mice were divided into normal NC group (NC), model group (Model), positive control-minoxidil group (Minoxidil), positive control-finasteride group (Finasteride), experimental group A and experimental group B. The proteins were stored in a −70° C. refrigerator and diluted with physiological saline when used. Experimental group A used rh-CRT-1, with a concentration of 0.21 mg/ml. Experimental group B used rh-CRT-2, with a concentration of 0.21 mg/ml. There were 6 mice in each group.
The main reagents used are as follows: 4% paraformaldehyde (Beijing Solarbio Technology Co., Ltd., China), isoflurane (Rayward, China), testosterone (Shanghai Standard Biotechnology Co., Ltd., China), paraffin sectioner (Thermo, USA), small animal anesthesia machine (Rayward, China), and inverted microscope (Olympus, Japan).
Modeling and drug administration: First, the androgenic alopecia model was established. One day before the modeling, the hair in the central part of the back of the experimental animal was removed with a skin preparation knife, and the prepared area was depilated with a depilatory cream. After 24 hours of depilation, the modeling agent (testosterone, 5.0 mg/mL) was subcutaneously injected into the neck of the mice in groups except the NC group, with a total dose of 0.2 mL/mouse. The mice in the NC group were injected with an equal amount of normal saline. After modeling, the mice were administrated with drugs. The NC group was injected with normal saline once a day, 0.15 mL/mouse each time. The experimental group A, experimental group B and positive control group were injected with modeling agent (testosterone), and administrated with drugs after 2 hours, and the dose of modeling agent was 0.2 mL/mouse. The experimental group A and experimental group B were injected on the back once a day, 0.15 mL/mouse each time. The positive control minoxidil group was applied 5% minoxidil externally, 0.01 mL/mouse, once a day. The positive control finasteride group was applied finasteride at a concentration of 13 μg/mL, 0.2 mL/mouse, once a day.

[2] = tested on: testosterone, dihydrotestosterone, and estradiol; assay: Second experiment: hormone content in serum and skin tissue by ELISA; type: in vivo, C57BL/6 male mice; conditions: compared with the model group
Protocol: Experimental animals: C57BL/6 male mice, 6-7 weeks old, weighing (20±2) g, were provided by Beijing Vital River Laboratory Animal Technology Co. Ltd., with the animal license number of SCXK (Beijing) 2021-0006. They were kept in a 12 h light/12 h dark environment, with free access to food and water. The mice were divided into normal control group (normal group, NC), model group (Model), experimental group C (rh-CRT-2, with a concentration of 0.35 mg/ml) including an injection group and an external application group, experimental group D (rh-CRT-3, with a concentration of 0.21 mg/ml) including an injection group and external application group, and positive control-minoxidil group (Minoxidil). The proteins were stored in a −70° C. refrigerator and diluted with physiological saline when used. There were 6 mice in each group.
Modeling and drug administration: First, the hair loss model was established. One day before the modeling, the hair in the center of the back of the experimental animal was removed with a skin preparation knife, and the prepared skin area was depilated with a depilatory cream. After 24 hours of depilation, the normal control group was given 75% ethanol, and other groups were injected with testosterone solution (5 mg/mL) prepared with 75% ethanol, 0.01 mL/mouse. Two hours later, the injection groups of experimental group C and experimental group D were injected on the back, 0.15 mL/mouse, once a day, for 17 consecutive days; the external application groups of experimental group C and experimental group D were applied on the back, 0.15 mL/mouse, once a day, for 17 consecutive days. The normal control group and the model group were externally applied with physiological saline, once a day, 0.15 mL/mouse, for 17 consecutive days. During the drug administration process, except for the normal control group, all other groups were injected with the modeling agent (testosterone), and administrated with drugs after 2 hours. […] After the experiment, the mouse skin was pathologically sectioned as follows: The skin pathological tissue was fixed in 4% paraformaldehyde, trimmed, dehydrated and transparent, and then embedded. The slices were cut with a thickness of 6 μm using a paraffin slicer, and further dewaxed, stained, dehydrated, transparent and sealed. The hair follicles in different areas were observed under an optical microscope, and the number of hair follicles was statistically analyzed.
Hormone content in serum and skin tissue: At the end of the experiment, blood was collected from the mice's orbits, kept at room temperature for 30 min, centrifuged at 5,000 r/min for 10 min, and the serum was removed. At the end of the experiment, skin tissue was collected and stored in a −80° C. refrigerator. During the experiment, the skin tissue was homogenized, and the changes in testosterone, dihydrotestosterone, and estradiol of the serum and skin tissue in each group were detected by enzyme-linked immunosorbent assay (ELISA).
Statistical analysis: All data were processed using SPSS 17.0 software. One-way ANOVA was used for comparisons among multiple groups. Data were expressed as mean±standard deviation (x±s). P<0.05 was considered statistically significant, and P>0.05 was not considered statistically significant.

B1: CRT-2: fragment (1-349 aa) of recombinantly expressed CRT, amino acid sequence SEQ ID NO: 9 (protein)
chain: EPAVYFKEQFLDGDGWTSRWIESKHKSDFGKFVLSSGKFYGDEEKDKGLQTSQDARFYALSASFEPFSNKGQTLVVQFTVKHEQNIDCGGGYVKLFPNSLDQTDMHGDSEYNIMFGPDICGPGTKKVHVIFNYKGKNVLINKDIRCKDDEFTHLYTLIVRPDNTYEVKIDNSQVESGSLEDDWDFLPPKKIKDPDASKPEDWDERAKIDDPTDSKPEDWDKPEHIPDPDAKKPEDWDEEMDGEWEPPVIQNPEYKGEWKPRQIDNPDYKGTWIHPEIDNPEYSPDPSIYAYDNFGVLGLDLWQVKSGTIFDNFLITNDEAYAEEFGNETWGVTKAAEKQMKDKQDEEQR
changes in hair observed by dermatoscope ([1]; 21 days, compared with the model group (frizzy hair), proteins 0.21 mg/ml injected on the back once a day, minoxidil 5% external, finasteride 13 μg/mL): smoother
hair cuticles observed by scanning electron microscopy ([1]; 21 days, proteins 0.21 mg/ml injected on the back once a day, minoxidil 5% external, finasteride 13 μg/mL, listed as experimental group B): arranged neatly; also recorded: denser than those of group A
hair shafts (scanning electron microscopy, FIG. 18 vs FIG. 19) ([1]; first experiment, comparison of experimental groups B and A): thicker than those of experimental group A
serum dihydrotestosterone ([2]; injection group, P<0.01): decreased significantly
skin tissue dihydrotestosterone ([2]; injection group, P<0.01): decreased significantly
testosterone level in skin tissue ([2]; injection group, P<0.05): significantly decreased
testosterone level in the serum ([2]; injection group, P<0.05): significantly decreased
serum dihydrotestosterone ([2]; topical (external application) group, P<0.05): decreased significantly
